Assay: yeast display, Sf9 membrane polyspecificity reagent, FACS + sequencing; frameworks hold sequencing errors
Outline: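 A nanobody's polyreactivity label depends on the gate it was sorted from. Yeast display cells were stained with 10% biotinylated, detergent-solubilized Sf9 membrane reagent for 1 hour at 4 °C, enriched on streptavidin microbeads and sorted by FACS. The low and high (top ~1%) gates were set on anti-HA fluorescence for expression and streptavidin fluorescence for reagent binding.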

Sequence	polyreactivity (PSR sort gate)
QVQLVESGGGLGQAGGSLRLSCAASGRTFTYNAMGWYRQAPGKERELVAAISYSGGRTYYADSVKGRFTISRDNAKNTVYLQMNSLKPEDTAVYYCARAYLGYYGRTYEYWGQGTQVTVSS	high polyreactivity
QVQLVESGGGLVQAGGSLRLSCAASGRIFKRNAMGWYRQAPGKERELVAAINWSGGSTYYADSVKGRFTISRDNAKNTVYLQMNSLKPEDTAVYYCAALRVQGDYDYWGQGTQVTVSS	high polyreactivity
QVQLVESGGGLVQAGGSLRLSCAASGFIFKRYAMGWYRQAPGKERELVATISNSGGRTYYADSVKWRFTISRDNAKNTVYLQMNSLKPEDTAVYYCAALPFWWGGYWGQGTQVTVSS	high polyreactivity
QVKLLESVGGLVQAGGSLRLSCMASGSILGDRMSWYRQPPGKEHELVATIYDGGITYYADSMKGRFTISRDNAKNTVYLQMNSLRPEDTAVYYCGASLEGYRYHVYCGQGTQVTVSS	low polyreactivity
QVKRVESGGGLVQAGGSLRLSCAASGSIVVTNAMGWYRQAPGKERELVAAITSSGSTDYADSVKGRFTISRDNAKNTVSLLMKILKREDTAVYYCNADVATGIFYGYDSWGQGTQVTVSS	low polyreactivity
QVQLVESGGGLVQAGGSLRLSCAASGGMGWYRQAPGKERELVATISSVGSTNYADSVKGRFTISRDNAKNTVYLQMNSLKPEDTAVYYCIATGVQYFLYGYWGQGTQVTVSS	low polyreactivity
QVQLVESGGGLVQAGGSLRLSCAASGSIFKKYAMGWYRQAPGKERELVAAITRGTYYADSVKGRFTISRDNAKNTVYLQMNSVKPVDTAVYYCNREYWGRGYYRVRGEYVYWGQGTQVTVSS	low polyreactivity
QVQLVESGGGLVQAGGSLRLSCAASGFTFQAYAMGWYRQAPGKVRELVAAINFSTGRTYYADSVKGRFTISRDNAKNTVYLQMNSLKPEDTAVYYCAADGSWTRSYDFDYWGQGTQVTVSS	high polyreactivity
QVQLVESGGGLVQAGGSLRLSCAASGSIFKQYVMGWYRQAPGKERELVAAISRGGNTYYADSVKGRFTISRDNAKNTVYLQMNSLKPEDTAVYYCAAVYGGRAVPYYSWGQGTQVTVSS	high polyreactivity
QVQLVESGGGLVQAGGSLRLSCAASGSIFYQNAMGWYRQAPGKESELVAAISWRGDSTSYADSVKGRFTISRDNAKNTVYLQMNSLKPEDPAVYYCATAHDYAFYRYWYVPSEYNYWGQGTLVTVSS	low polyreactivity
QEQLQESGGGLVQAGGSLRLSCAASGSISQAWYMGWYRQAPGKERELVAAINVGAITYYADSVKGRFSISRDNAKNTVYLPMNSLTPEDTGVYYCAVDQYSEAYYDYWGQGTQATVSS	high polyreactivity
QVQLVESGGGLVQAGGSLRLSCAASGSIFTPNAMGWYRQAPGKERELVAAISRSGGSTYYADSVKGRFTISRDNAKNTVYLQMNSLKPEDTAVYYCAVDYRYYYRYTSGEYWGQGTQGTVSS	low polyreactivity
QVQLVESAGGIVQEGGSLRLSCAASGGTFTNYALGWYRQAPGKERELVAAITDSGAHTYYADSVKGRFTISRDNAKNKVYLQMYCLKPEDTAVYYCNAELDLYTDFDYWGQVTQVTVSS	low polyreactivity
QVQLVESGGGLVQAGGSLRLSCAASGFIFVRYAMGWYRQAPGKERELVAAISSSGGTTNYADSVKGRFTISRDNAKHTVYLQMNSLKPEDTAVYYCNADYYWFFDFFDYDYWGQGTQVTVSS	low polyreactivity
QVQLVESGGGLVQAGGSLRLSCAASGGIFGLYTMGWYRQAPGKERELVAGISKRGTRTRYADSVKGRFTISRDHAKNTVYLQMNSLKPEDTAVYYCNADYYVSKLDYWGQGTQVTVSS	high polyreactivity
QVQLVESGGGLVQAGGSLRLSCAASGLTFVYYDMGWYRQAPGKERELVADITDGSSTNYADSVKGRFTISRDNAKNTVYLQMYSLKREDTAVYYCAVDAVFQGSLGDYEYDYWGQGTQVTVSS	low polyreactivity
QVQLVESGGGLVQAGGSLRLSCAASGSTFITNIMGWYRQAPGKERELVAAISYIDGTTYYADSVKGRFTISRDNAKNTVYLQMNSLKPEDTAVYYCAAYPYLYPLRFEEYDHWGQGTQVTVSS	low polyreactivity
